What was measured:
[1] = target: Pan1-FKBP (yeast Eps15-like protein Pan1p with a C-terminal FKBP tag) (yeast) (UniProt P32521); assay: inducible peroxisome redistribution assay
[2] = target: T1, Pan1-FKBP (yeast Eps15-like protein Pan1p with a C-terminal FKBP tag) (yeast), P32521; assay: inducible peroxisome redistribution assay; conditions: remark: other sources report otherwise
T1 chain: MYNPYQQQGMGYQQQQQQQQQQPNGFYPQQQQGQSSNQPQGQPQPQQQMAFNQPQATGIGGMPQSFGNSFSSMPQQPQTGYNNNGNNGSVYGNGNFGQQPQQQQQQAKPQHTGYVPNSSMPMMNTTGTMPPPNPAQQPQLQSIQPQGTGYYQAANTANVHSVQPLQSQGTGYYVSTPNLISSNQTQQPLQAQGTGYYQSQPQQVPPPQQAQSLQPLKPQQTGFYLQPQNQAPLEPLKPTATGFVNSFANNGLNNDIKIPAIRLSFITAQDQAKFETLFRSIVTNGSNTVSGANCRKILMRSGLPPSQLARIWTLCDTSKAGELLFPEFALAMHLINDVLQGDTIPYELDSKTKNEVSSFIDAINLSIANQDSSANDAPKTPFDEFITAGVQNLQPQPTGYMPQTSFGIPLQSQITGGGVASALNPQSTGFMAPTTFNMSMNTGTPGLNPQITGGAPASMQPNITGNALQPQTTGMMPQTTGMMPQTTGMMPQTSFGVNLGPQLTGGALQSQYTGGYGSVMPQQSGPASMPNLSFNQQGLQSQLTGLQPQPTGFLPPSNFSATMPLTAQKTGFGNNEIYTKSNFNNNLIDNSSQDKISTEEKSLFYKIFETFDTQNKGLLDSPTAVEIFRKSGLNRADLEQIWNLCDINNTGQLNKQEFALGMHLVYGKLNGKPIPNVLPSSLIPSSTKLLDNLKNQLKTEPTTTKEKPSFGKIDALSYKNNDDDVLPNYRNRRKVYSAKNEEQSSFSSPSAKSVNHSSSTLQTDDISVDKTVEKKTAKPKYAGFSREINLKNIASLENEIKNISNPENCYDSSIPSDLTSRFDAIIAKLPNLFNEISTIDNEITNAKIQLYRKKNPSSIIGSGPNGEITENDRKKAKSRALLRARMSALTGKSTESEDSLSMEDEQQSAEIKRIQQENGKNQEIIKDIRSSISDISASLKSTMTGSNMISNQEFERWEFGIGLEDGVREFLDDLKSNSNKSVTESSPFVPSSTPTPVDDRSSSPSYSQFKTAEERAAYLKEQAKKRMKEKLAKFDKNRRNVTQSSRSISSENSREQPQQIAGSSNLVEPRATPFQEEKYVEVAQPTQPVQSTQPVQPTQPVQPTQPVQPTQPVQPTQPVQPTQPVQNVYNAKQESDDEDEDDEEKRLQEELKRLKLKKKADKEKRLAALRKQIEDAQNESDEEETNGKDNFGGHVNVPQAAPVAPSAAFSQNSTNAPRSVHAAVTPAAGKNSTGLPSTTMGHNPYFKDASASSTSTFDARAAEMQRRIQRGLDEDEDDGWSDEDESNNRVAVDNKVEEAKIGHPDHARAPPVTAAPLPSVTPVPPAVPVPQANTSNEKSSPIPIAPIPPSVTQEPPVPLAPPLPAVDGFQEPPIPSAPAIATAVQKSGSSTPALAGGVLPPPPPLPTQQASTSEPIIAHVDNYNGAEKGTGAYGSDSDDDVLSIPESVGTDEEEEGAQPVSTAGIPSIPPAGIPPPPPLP

Molecule	percent localized to the peroxisome [1]	percent localized to the peroxisome [2]
GFP-tagged Ent2p (from UniProt Q05785 1-613) (natural protein)	66.7%	
GFP-fused Sla2p (from UniProt P33338 1-968) (natural protein)	72%	
Ent1-GFP (from UniProt Q12518 1-454) (natural protein)	64%	
Sla1-GFP, P32790 1-1244 (natural protein) MTVFLGIYRAVYAYEPQTPEELAIQEDDLLYLLQKSDIDDWWTVKKRVIGSDSEEPVGLVPSTYIEEAPVLKKVRAIYDYEQVQNADEELTFHENDVFDVFDDKDADWLLVKSTVSNEFGFIPGNYVEPENGSTSKQEQAPAAAEAPAATPAAAPASAAVLPTNFLPPPQHNDRARMMQSKEDQAPDEDEEGPPPAMPARPTATTETTDATAAAVRSRTRLSYSDNDNDDEEDDYYYNSNSNNVGNHEYNTEYHSWNVTEIEGRKKKKAKLSIGNNKINFIPQKGTPHEWSIDKLVSYDNEKKHMFLEFVDPYRSLELHTGNTTTCEEIMNIIGEYKGASRDPGLREVEMASKSKKRGIVQYDFMAESQDELTIKSGDKVYILDDKKSKDWWMCQLVDSGKSGLVPAQFIEPVRDKKHTESTASGIIKSIKKNFTKSPSRSRSRSRSKSNANASWKDDELQNDVVGSAAGKRSRKSSLSSHKKNSSATKDFPNPKKSRLWVDRSGTFKVDAEFIGCAKGKIHLHKANGVKIAVAADKLSNEDLAYVEKITGFSLEKFKANDGSSSRGTDSRDSERERRRRLKEQEEKERDRRLKERELYELKKARELLDEERSRLQEKELPPIKPPRPTSTTSVPNTTSVPPAESSNNNNSSNKYDWFEFFLNCGVDVSNCQRYTINFDREQLTEDMMPDINNSMLRTLGLREGDIVRVMKHLDKKFGRENIASIPTNATGNMFSQPDGSLNVATSPETSLPQQLLPQTTSPAQTAPSTSAETDDAWTVKPASKSESNLLSKKSEFTGSMQDLLDLQPLEPKKAAASTPEPNLKDLEPVKTGGTTVPAAPVSSAPVSSAPAPLDPFKTGGNNILPLSTGFVMMPMITGGDMLPMQRTGGFVVPQTTFGMQSQVTGGILPVQKTGNGLIPISNTGGAMMPQTTFGAAATVLPLQKTGGGLIPIATTGGAQFPQTSFNVQGQQQLPTGSILPVQKTANGLISANTGVSMPTVQRTGGTMIPQTSFGVSQQLTGGAMMTQPQNTGSAMMPQTSFNAVPQITGGAMMPQTSFNALPQVTGGAMMPLQRTGGALNTFNTGGAMIPQTSFSSQAQNTGGFRPQSQFGLTLQKTGGIAPLNQNQFTGGAMNTLSTGGVLQQQQPQTMNTFNTGGVMQELQMMTTFNTGGAMQQPQMMNTFNTDGIMQQPQMMNTFNTGGAMQQPQQQALQNQPTGFGFGNGPQQSRQANIFNATASNPFGF		63.3%

Reference: paper PMC9396825
